T1: CsIVP (Irregular Vasculature Patterning, bHLH) (Cucumis sativus, UniProt A0A0A0KHS6 1-223)
T1 sequence: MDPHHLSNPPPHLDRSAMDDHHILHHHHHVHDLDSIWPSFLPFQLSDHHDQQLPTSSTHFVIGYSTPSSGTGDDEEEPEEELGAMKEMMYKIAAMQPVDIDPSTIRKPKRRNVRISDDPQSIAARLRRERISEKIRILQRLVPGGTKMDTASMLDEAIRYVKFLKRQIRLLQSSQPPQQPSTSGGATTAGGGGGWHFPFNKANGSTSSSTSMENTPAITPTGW

B1: CsBP promoter probe (-333) (dsDNA)
DNA 1: ACTTTAATGGCGCACCCTCAACTGAGATATCTATACCC
DNA 2: GGGTATAGATATCTCAGTTGAGGGTGCGCCATTAAAGT
B2: CsAUX4 promoter probe (-1492) (dsDNA)
DNA 1: AGGGATGGAGGTGAGCACATGGGAGGGCCGCTGCC
DNA 2: GGCAGCGGCCCTCCCATGTGCTCACCTCCATCCCT
B3: CsYAB5 promoter probe (-1626) (dsDNA)
DNA 1: TATAAAATTGTTTTAACCAATTGAGTTATATACATTCAA
DNA 2: TTGAATGTATATAACTCAATTGGTTAAAACAATTTTATA
B4: CsCCR1 promoter probe (-1939) (dsDNA)
DNA 1: CAAAATTGACTTCTTCCACTTGTGCAGTCAAACAGTTC
DNA 2: GAACTGTTTGACTGCACAAGTGGAAGAAGTCAATTTTG

Assays:
[1] = target: T1, CsIVP (Irregular Vasculature …); assay: EMSA; 80, 120, 160 fmol probe; cold competitor; LightShift Chemiluminescent EMSA Kit (Thermo 20148), manufacturer's instructions; buffer, salt, pH and temperature not stated; details: protein: recombinant; tags: pET-28a vector (Ni-NTA purified); chain copies: 2; label: 5' biotin on forward strand; blunt
[2] = target: T1, CsIVP (Irregular Vasculature …); assay: EMSA; 80, 120, 160 fmol probe; LightShift Chemiluminescent EMSA Kit (Thermo 20148), manufacturer's instructions; buffer, salt, pH and temperature not stated; details: protein: recombinant; tags: pET-28a vector (Ni-NTA purified); chain copies: 2; label: 5' biotin on forward strand; blunt

| Binder | binding result [1] | binding result [2] |
| --- | --- | --- |
| B1 | binds |  |
| B2 | binds |  |
| B3 | binds |  |
| B4 |  | no binding |

From article PMC7117775, “CsIVP functions in vasculature development and downy mildew resistance in cucumber”
